23 molecules from patent US20240352438A1, “MEANS AND METHODS FOR DETOXIFYING OCHRATOXIN A” (DSM Austria GmbH, priority 2021, published 2024) can be followed below.

Changes are numbered by the printed parent chain.

B1: 289 (protein)
chain: MTTRTRILTAFLSLLAANACAADAAPAAPHTVVLRAARMFDGASGKLVDHPQLTIVGNKIVRIAQGDKAEVPAGAEVVDLGDATLLPGFIDAHVHLSGQSSDNWYGDFFDNMMRFPAEQALYGAYYARITLEAGFTSVRDVGSTDWVALGLRNAIDAGKVPGPRMLVSNYAVGSTGGHADQDPIPPHKLPLAGPLQGVCNGPEECRAAVRYQIKYGANVIKFMPSGGVLSLSDPVDAPELSQDEMNAVIGESHAWGRKVAAHAHGDKAAKMAVAAGVDSIEHGSFIEDDTLRAMKAKNVYLVPTISAAAHVEEKIGTFPPVIAEKGRAAAAHLRQTFRHAVQIGVPIALGTDAGVFAHGSNAREFRYMVENGLTPAQALLAGTANAARLLGTFDRVGTLEAGKLADVVAVPGNPIADITVTERPLFVMKDGVVVRRDAVR
modifications: exemplary polypeptide
B2: 299 (protein)
chain: B1 chain with A308I, H310D, V355L, F356G
modifications: exemplary polypeptide
B3: 296 (protein)
chain: B1 chain with A308V, F356Y
modifications: exemplary polypeptide
B4: 309 (protein)
chain: B1 chain with L333I, F356G
modifications: exemplary polypeptide
B5: 304 (protein)
chain: B1 chain with I184V, A192L, A308I, F356G
modifications: exemplary polypeptide
B6: 315 (protein)
chain: B1 chain with A308V, L333M, F356G
modifications: exemplary polypeptide
B7: 301 (protein)
chain: B1 chain with A308I, V311A, V355L, F356G
modifications: exemplary polypeptide
B8: 305 (protein)
chain: B1 chain with I184V, A192M, A308I, F356G
modifications: exemplary polypeptide
B9: 300 (protein)
chain: B1 chain with A308I, H310E, V355L, F356G
modifications: exemplary polypeptide
B10: 306 (protein)
chain: B1 chain with A330L, F356G
modifications: exemplary polypeptide
B11: 311 (protein)
chain: B1 chain with A308V, A330L, F356G
modifications: exemplary polypeptide
B12: 307 (protein)
chain: B1 chain with A330M, F356G
modifications: exemplary polypeptide
B13: 310 (protein)
chain: B1 chain with L333M, F356G
modifications: exemplary polypeptide
B14: 308 (protein)
chain: B1 chain with A330V, F356G
modifications: exemplary polypeptide
B15: 303 (protein)
chain: B1 chain with A308I, V355L, F356P
modifications: exemplary polypeptide
B16: 291 (protein)
chain: B1 chain with F356Y
modifications: exemplary polypeptide
B17: 313 (protein)
chain: B1 chain with A308V, A330V, F356G
modifications: exemplary polypeptide
B18: 292 (protein)
chain: B1 chain with L229I, A308V, F356G
modifications: exemplary polypeptide
B19: 297 (protein)
chain: B1 chain with A308I, G354A, F356V
modifications: exemplary polypeptide
B20: 294 (protein)
chain: B1 chain with A308V
modifications: exemplary polypeptide
B21: 295 (protein)
chain: B1 chain with A308V, F356P
modifications: exemplary polypeptide
B22: 290 (protein)
chain: B1 chain with F356P
modifications: exemplary polypeptide
B23: 312 (protein)
chain: B1 chain with A308V, A330M, F356G
modifications: exemplary polypeptide

The nature of the first data set: OTA detoxification activity assay (specific activity, fluorescence reduction ex/em 390/450 nm). Type of data set: biochemical. The settings on record: pH 6.0; SEQ ID NO: 1 = 100%. Put shortly: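 Recombinant enzyme preparation with 200 ng/mL OTA in 100 mM sodium phosphate, at pH 6.0 and pH 7.5, 37° C. Degradation followed as the fall in fluorescence at ex/em 390/450 nm. Specific activity taken from the initial linear slope; one unit degrades 1 μmol OTA per min at a starting OTA of […].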
Regarding B1, the “Specific OTA detoxification activities in % compared to the enzyme of SEQ ID NO: 1, pH 6.0” value is 66%.
Still for that read-out and setting: for B2 the value was 156%; for B3, 42%.
Same read-out and setting: the figure for B4 is 106%; for B5 it is 25%; for B6 it is 38%.
Consider B7, for which the “Specific OTA detoxification activities in % compared to the enzyme of SEQ ID NO: 1, pH 6.0” value is given as 55%.
Still for that read-out and setting: the figure for B8 is 36%.
Still for that read-out and setting: for B9 the value was 152%.
On the same count and under the same terms, the figure for B10 is 114%.
Consider B11, for which the “Specific OTA detoxification activities in % compared to the enzyme of SEQ ID NO: 1, pH 6.0” value is 89%.
In the case of B12, the “Specific OTA detoxification activities in % compared to the enzyme of SEQ ID NO: 1, pH 6.0” value is listed as 138%.
Take B13: the “Specific OTA detoxification activities in % compared to the enzyme of SEQ ID NO: 1, pH 6.0” value was 78%.
Regarding B14, the “Specific OTA detoxification activities in % compared to the enzyme of SEQ ID NO: 1, pH 6.0” value was found to be 171%.
On to B15, for which the “Specific OTA detoxification activities in % compared to the enzyme of SEQ ID NO: 1, pH 6.0” value amounted to 167%.
Same read-out and setting: for B16 the value was 77%; for B17, 84%.
Still for that read-out and setting: for B18 the value was 77%; for B19, 182%.
For the molecule B20, the “Specific OTA detoxification activities in % compared to the enzyme of SEQ ID NO: 1, pH 6.0” value was 31%.
Same read-out and setting: for B21 the value was 95%; for B22, 160%.
The same measure, in the same setting: the figure for B23 is 81%.

The same data set, now with this note: pH 7.5; SEQ ID NO: 1 = 100%.
As for B1, the “Specific OTA detoxification activities in % compared to the enzyme of SEQ ID NO: 1, pH 7.5” value was found to be 106%.
Still for that read-out and setting: for B2 the value was 95%.
On the same count and under the same terms, the figure for B3 is 38%; for B4 it is 48%.
Same read-out and setting: the figure for B5 is 24%.
With B6, the “Specific OTA detoxification activities in % compared to the enzyme of SEQ ID NO: 1, pH 7.5” value turned out to be 56%.
Still for that read-out and setting: the figure for B7 is 43%; for B8 it is 46%.
Take B9: the “Specific OTA detoxification activities in % compared to the enzyme of SEQ ID NO: 1, pH 7.5” value was found to be 103%.
Still for that read-out and setting: for B10 the value was 74%; for B11, 48%.
Still for that read-out and setting: for B12 the value was 84%; for B13, 91%.
The same measure, in the same setting: the figure for B14 is 117%; for B15 it is 110%.
As for B16, the “Specific OTA detoxification activities in % compared to the enzyme of SEQ ID NO: 1, pH 7.5” value worked out at 79%.
Still for that read-out and setting: for B17 the value was 54%.
Still for that read-out and setting: for B18 the value was 81%.
On the same count and under the same terms, the figure for B19 is 106%; for B20 it is 42%.
Consider B21, for which the “Specific OTA detoxification activities in % compared to the enzyme of SEQ ID NO: 1, pH 7.5” value amounted to 110%.
For B22, the “Specific OTA detoxification activities in % compared to the enzyme of SEQ ID NO: 1, pH 7.5” value was found to be 122%.
Still for that read-out and setting: the figure for B23 is 64%.

A further data set in a line: Enzymatic activity comparison: activity remaining after 65° C. for 10 min at pH 6.0, relative to SEQ ID NO: 1. It is filed as physicochemical.
Settings: not given
As to the method: To compare the temperature behavior and thermostability of selected enzymes to one another, enzyme was incubated at 65° C. for 10 min at pH 6.0. The enzymatic activity remaining after incubation was compared to the remaining activity of the enzyme of SEQ ID NO: 1 after incubation, the latter being set to 100%, see Table 16.
For B1, the “Enzymatic activity remaining after incubation, compared to SEQ ID NO: 1 (set to 100%)” value was 63%.
On to B2, for which the “Enzymatic activity remaining after incubation, compared to SEQ ID NO: 1 (set to 100%)” value is recorded as 27%.
On the same count and under the same terms, for B3 the value was 43%; for B4, 28%; for B5, 63%.
As to B6, the “Enzymatic activity remaining after incubation, compared to SEQ ID NO: 1 (set to 100%)” value is listed as 29%.
As for B7, the “Enzymatic activity remaining after incubation, compared to SEQ ID NO: 1 (set to 100%)” value was found to be 35%.
Turning to B8, the “Enzymatic activity remaining after incubation, compared to SEQ ID NO: 1 (set to 100%)” value was determined as 35%.
Regarding B9, the “Enzymatic activity remaining after incubation, compared to SEQ ID NO: 1 (set to 100%)” value is 31%.
As to B10, the “Enzymatic activity remaining after incubation, compared to SEQ ID NO: 1 (set to 100%)” value was 36%.
As to B11, the “Enzymatic activity remaining after incubation, compared to SEQ ID NO: 1 (set to 100%)” value was found to be 30%.
Consider B12, for which the “Enzymatic activity remaining after incubation, compared to SEQ ID NO: 1 (set to 100%)” value came to 35%.
Take B13: the “Enzymatic activity remaining after incubation, compared to SEQ ID NO: 1 (set to 100%)” value is recorded as 39%.
On the same count and under the same terms, for B14 the value was 39%.
The same measure, in the same setting: for B15 the value was 56%; for B16, 34%.
As to B17, the “Enzymatic activity remaining after incubation, compared to SEQ ID NO: 1 (set to 100%)” value is 20%.
Still for that read-out and setting: the figure for B18 is 21%; for B19 it is 32%.
Same read-out and setting: the figure for B20 is 36%; for B21 it is 41%; for B22 it is 53%.
On the same count and under the same terms, the figure for B23 is 17%.
